Data from the supplement of paper PMC10065799, “High-throughput profiling of sequence recognition by tyrosine kinases and SH2 domains using bacterial peptide display” (eLife, 2023).

What was measured:
Fyn = Fyn (UniProt P06241); experiment: phosphorylation enrichment, bacterial display (enrichment ratio); higher = better substrate or ligand; peptides without Tyr show the background
Hck = Hck (UniProt P08631); experiment: as above
Fer (mouse) = experiment: as above
AncSZ = experiment: as above
c-Abl (mouse) = experiment: as above
FGFR1 = FGFR1 (UniProt P11362); experiment: as above
FGFR3 = FGFR3 (UniProt P22607); experiment: as above
EPHB1 = EPHB1 (UniProt P54762); experiment: as above
Fes = Fes (UniProt P07332); experiment: as above
MERTK = MERTK (UniProt Q12866); experiment: as above
EPHB2 = EPHB2 (UniProt P29323); experiment: as above
c-Src = experiment: as above
Jak2 = Jak2 (UniProt O60674); experiment: as above
c-Src SH2 = experiment: SH2 binding enrichment of the phosphorylated peptide, bacterial display (enrichment ratio); higher = better substrate or ligand; peptides without Tyr show the background
SHP2-C SH2 = experiment: as above
Grb2 SH2 = Grb2 SH2 (UniProt P62993); experiment: as above
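Throughout, for SH2 binding enrichment of the phosphorylated peptide, bacterial display: peptide library displayed on the E. coli surface as eCPX fusions, selected cells deep-sequenced, score is each peptide's frequency after selection divided by its frequency in the input.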
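Throughout, for phosphorylation enrichment, bacterial display: 11-residue human phosphosite peptides and single-mutation variants displayed on the E. coli surface, counted by deep sequencing, each peptide's frequency after selection divided by its frequency in the unselected input library; frequency after pTyr selection over input frequency; kinase dosed for 20-30% of maximal phosphorylation in three min.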

MERTK, sequence (Q12866 whole entry, looked up): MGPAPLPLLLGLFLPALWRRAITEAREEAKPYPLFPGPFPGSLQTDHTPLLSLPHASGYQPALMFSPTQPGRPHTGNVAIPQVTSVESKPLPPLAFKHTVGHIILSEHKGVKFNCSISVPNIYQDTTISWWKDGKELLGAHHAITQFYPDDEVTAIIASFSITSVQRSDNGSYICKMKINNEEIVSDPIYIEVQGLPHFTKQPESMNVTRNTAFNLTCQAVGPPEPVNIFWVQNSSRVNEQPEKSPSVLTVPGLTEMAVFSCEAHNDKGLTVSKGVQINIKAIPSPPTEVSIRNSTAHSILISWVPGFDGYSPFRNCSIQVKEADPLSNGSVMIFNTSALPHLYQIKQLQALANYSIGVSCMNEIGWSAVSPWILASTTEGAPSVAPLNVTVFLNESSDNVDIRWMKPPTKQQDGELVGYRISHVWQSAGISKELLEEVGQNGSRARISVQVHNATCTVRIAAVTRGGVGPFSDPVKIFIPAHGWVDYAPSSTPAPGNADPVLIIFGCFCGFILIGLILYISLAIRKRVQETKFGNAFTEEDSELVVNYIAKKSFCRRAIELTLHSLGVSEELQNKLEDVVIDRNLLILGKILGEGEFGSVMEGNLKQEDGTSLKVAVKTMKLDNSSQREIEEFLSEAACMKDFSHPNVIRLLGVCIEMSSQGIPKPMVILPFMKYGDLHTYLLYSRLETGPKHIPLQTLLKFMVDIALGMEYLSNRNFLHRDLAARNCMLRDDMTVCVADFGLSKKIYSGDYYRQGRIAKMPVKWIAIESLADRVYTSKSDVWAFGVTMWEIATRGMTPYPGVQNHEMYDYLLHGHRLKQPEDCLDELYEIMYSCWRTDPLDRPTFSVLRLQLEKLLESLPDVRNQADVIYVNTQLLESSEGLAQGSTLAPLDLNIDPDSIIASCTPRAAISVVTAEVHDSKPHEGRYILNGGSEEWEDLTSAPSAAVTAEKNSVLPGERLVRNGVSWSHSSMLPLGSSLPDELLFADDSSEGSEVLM
FGFR3, sequence (P22607 whole entry, looked up): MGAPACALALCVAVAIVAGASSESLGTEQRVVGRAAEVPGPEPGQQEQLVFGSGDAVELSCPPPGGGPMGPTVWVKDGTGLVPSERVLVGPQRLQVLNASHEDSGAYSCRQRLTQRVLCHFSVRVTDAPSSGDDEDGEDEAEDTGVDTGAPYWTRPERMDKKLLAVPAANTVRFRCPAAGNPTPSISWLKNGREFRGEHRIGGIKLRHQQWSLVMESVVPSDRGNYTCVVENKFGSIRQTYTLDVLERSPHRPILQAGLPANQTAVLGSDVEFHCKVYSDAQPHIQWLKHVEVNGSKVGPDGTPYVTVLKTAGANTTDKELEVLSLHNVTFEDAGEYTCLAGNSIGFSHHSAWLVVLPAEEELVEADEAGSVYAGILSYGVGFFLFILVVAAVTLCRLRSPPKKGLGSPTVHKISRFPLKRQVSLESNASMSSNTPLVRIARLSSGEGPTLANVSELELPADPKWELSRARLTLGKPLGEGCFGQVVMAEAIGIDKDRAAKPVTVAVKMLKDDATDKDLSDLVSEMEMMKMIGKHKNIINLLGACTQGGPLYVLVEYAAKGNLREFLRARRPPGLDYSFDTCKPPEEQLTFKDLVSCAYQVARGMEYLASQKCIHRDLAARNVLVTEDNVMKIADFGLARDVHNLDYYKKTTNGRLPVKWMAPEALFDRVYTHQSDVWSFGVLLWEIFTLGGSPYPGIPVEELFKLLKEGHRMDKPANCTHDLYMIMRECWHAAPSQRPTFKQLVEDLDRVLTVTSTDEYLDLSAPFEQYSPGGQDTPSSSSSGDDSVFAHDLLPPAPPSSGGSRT
Grb2 SH2, sequence (P62993 whole entry, looked up, the tested form may be a part): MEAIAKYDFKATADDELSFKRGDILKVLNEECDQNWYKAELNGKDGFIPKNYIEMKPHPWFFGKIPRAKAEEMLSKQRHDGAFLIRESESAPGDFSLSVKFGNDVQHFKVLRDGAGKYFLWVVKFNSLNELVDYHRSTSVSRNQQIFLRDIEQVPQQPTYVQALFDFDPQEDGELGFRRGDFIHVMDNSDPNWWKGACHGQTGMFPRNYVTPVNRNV
Hck, sequence (P08631 whole entry, looked up): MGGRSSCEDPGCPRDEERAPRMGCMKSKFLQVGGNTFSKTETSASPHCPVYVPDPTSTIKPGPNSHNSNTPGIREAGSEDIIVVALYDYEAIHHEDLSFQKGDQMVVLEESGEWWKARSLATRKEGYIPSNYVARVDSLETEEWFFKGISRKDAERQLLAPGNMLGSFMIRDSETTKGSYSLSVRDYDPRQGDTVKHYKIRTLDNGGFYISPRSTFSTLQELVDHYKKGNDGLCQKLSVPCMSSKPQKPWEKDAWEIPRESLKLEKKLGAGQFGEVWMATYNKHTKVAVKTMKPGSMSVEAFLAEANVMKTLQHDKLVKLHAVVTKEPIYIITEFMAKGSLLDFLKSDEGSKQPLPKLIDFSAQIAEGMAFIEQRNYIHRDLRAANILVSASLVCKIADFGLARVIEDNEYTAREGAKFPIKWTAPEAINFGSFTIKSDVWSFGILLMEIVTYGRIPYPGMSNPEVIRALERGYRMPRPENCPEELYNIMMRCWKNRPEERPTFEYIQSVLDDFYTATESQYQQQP
FGFR1, sequence (P11362 whole entry, looked up): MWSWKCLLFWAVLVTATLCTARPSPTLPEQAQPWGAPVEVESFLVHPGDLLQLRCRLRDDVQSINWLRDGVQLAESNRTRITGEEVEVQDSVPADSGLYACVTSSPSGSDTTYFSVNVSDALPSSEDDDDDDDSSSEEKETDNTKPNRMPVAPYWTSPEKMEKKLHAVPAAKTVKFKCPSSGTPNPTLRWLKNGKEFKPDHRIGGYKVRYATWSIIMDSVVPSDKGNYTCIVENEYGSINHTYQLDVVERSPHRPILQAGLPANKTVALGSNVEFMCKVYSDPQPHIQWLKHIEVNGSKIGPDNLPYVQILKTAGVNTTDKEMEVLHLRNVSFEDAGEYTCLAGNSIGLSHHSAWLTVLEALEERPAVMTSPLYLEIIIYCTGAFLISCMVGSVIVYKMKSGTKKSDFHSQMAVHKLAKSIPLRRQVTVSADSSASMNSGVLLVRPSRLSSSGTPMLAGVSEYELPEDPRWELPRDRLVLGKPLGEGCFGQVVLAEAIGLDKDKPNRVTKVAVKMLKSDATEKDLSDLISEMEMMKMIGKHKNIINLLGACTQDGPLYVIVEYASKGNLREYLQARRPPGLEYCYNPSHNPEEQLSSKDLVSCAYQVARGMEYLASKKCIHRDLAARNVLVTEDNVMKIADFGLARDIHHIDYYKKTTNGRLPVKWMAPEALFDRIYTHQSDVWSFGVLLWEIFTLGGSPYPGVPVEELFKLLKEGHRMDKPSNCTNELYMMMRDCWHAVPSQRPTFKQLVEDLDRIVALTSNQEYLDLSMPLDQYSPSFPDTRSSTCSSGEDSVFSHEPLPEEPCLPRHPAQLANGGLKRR
Fyn, sequence (P06241 whole entry, looked up): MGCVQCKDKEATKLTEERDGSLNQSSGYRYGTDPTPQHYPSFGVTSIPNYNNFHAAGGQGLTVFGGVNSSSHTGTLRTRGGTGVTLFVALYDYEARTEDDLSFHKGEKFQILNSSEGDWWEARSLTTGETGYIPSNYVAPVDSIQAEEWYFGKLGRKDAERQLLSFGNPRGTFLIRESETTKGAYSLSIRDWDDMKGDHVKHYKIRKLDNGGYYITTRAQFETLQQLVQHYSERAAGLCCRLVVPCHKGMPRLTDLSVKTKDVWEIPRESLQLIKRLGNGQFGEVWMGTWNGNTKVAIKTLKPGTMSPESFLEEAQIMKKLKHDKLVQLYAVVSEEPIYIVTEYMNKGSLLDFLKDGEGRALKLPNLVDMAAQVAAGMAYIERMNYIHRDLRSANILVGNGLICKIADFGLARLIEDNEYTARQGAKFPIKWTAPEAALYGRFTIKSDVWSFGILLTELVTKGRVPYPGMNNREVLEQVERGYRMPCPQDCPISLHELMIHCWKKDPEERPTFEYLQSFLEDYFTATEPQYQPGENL
EPHB2, sequence (P29323 whole entry, looked up): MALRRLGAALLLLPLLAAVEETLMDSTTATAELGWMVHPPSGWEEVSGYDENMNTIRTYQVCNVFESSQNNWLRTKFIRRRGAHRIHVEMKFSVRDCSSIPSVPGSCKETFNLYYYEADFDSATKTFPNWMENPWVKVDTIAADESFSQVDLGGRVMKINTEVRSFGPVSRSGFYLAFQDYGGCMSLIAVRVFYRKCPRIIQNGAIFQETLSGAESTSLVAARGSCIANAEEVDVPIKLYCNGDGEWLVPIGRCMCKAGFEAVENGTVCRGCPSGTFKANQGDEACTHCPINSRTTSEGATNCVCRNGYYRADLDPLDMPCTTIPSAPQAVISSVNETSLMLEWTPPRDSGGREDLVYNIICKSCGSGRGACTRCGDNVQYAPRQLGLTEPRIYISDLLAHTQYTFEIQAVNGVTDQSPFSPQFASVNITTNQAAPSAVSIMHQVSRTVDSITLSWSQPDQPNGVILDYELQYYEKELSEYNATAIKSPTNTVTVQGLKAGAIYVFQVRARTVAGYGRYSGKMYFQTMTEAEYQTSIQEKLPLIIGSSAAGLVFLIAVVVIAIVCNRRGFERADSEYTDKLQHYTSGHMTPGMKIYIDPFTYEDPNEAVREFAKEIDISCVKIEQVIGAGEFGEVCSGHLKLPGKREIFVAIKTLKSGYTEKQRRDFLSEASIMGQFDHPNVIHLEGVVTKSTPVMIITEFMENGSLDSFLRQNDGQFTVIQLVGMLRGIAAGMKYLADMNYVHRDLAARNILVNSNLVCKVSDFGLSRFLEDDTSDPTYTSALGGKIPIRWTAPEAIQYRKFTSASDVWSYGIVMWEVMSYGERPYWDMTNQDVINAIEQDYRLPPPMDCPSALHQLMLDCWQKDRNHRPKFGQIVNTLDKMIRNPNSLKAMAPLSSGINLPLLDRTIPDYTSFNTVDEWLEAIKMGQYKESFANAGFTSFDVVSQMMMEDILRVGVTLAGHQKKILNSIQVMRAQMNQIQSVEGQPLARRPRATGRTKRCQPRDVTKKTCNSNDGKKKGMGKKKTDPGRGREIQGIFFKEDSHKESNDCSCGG

Sequence	phosphorylation enrichment (Fyn)	phosphorylation enrichment (Hck)	phosphorylation enrichment (Fer (mouse))	phosphorylation enrichment (AncSZ)	phosphorylation enrichment (c-Abl (mouse))	phosphorylation enrichment (FGFR1)	phosphorylation enrichment (FGFR3)	phosphorylation enrichment (EPHB1)	phosphorylation enrichment (Fes)	phosphorylation enrichment (MERTK)	phosphorylation enrichment (EPHB2)	phosphorylation enrichment (c-Src)	phosphorylation enrichment (Jak2)	SH2 binding enrichment (c-Src SH2)	SH2 binding enrichment (SHP2-C SH2)	SH2 binding enrichment (Grb2 SH2)
QMVGKYASSFM [AVPR2_Y124_M123K_YF]	0.564	0.413	0.431	0.613	1.15	0.516	0.626	0.772	0.992	0.642	0.341	0.635	0.774	0.467	0.732	0.894
QNTGHYSSDNT [TMEFF2_Y361]	0.545	0.544	0.43	0.461	0.49	0.474	0.691	0.446	0.532	0.544	0.442	0.704	0.443	0.347	0.506	0.581
QNTGHYSSENT [TMEFF2_Y361_D364E]	0.903	0.468	0.868	0.66	0.561	0.828	0.548	0.814	1.33	0.908	0.389	0.588	0.575	0.467	0.735	0.95
QPGTDYKIFRF [FN1_Y1970_L1974R_YF]	0.529	1.18	0.756	1.77	1.74	1.22	1.28	0.754	2.04	1.17	0.567	1.89	1.64	0.497	0.635	0.644
QPRDIYHQTWA [GBA_Y244_G241R]	1.77	2.72	0.526	0.821	1.15	2.91	1.38	0.574	0.913	3.54	0.627	1.99	0.787	0.709	0.942	0.945
QQIYTYDSGIH [JUP_Y22_T19I]	10.3	4.94	4.16	1.02	0.91	1.86	1.84	3.57	0.923	11.1	1.98	6.68	0.788	0.666	0.834	0.922
QQLVAYFSKHA [SRC_Y232_YF]	0.53	0.652	0.48	0.972	0.806	0.621	0.813	0.664	1.15	0.573	0.547	0.744	0.936	0.644	0.699	1.57
QRHYVYYYSYL [PTEN_Y176_R173H]	3.5	3.31	1.29	1.79	1.84	7.4	6.74	3.51	1.91	8.74	2.16	5.11	5.22	0.698	1.12	0.688
QRIYQYIQSRF [DYRK1B_Y273]	1.68	3.87	5.21	3.1	3.62	1.25	2	6.1	2.48	6.41	1.63	3.17	1.82	2.05	1.58	1.26
